# According to patent US6033845:
# Tests used:
# [1] = target: 7B-maltose binding protein fusion protein (Feline Infectious Peritonitis Virus (Applicant's field isolate)) [MBP: P0AEX9]; settings: scale: colonies, mean less control, at 20 µg/ml 7B
# [2] = target: maltose binding protein (Escherichia coli (strain K12)) [MBP: P0AEX9]
substance,measurement,setting,value
white blood cells from a cat known to have clinical FIP (cat #88) (cells without a defined receptor),"No. of Colonies (T-cell colony stimulation, two days)",[1],31
same,"No. of Colonies (T-cell colony stimulation, two days) (colonies, mean less control)",[2],-1
